Results as given in article PMC8509808, “Characterization of the Chimeric PriB-SSBc Protein” (International Journal of Molecular Sciences, 2021).

Key:
[1] = molecular target: chimeric PriB-SSBc protein (KpPriB1-98 fused KpSSB112-174) (Klebsiella pneumoniae) (UniProt A6THB2); assay: SEC; purified PriB-SSBc 4 mg/mL in 20 mM HEPES, 100 mM NaCl, pH 7.0 on a Superdex 200 prep grade column, calibrated with standard proteins
KpPriB [2] = molecular target: T1, KpPriB (Klebsiella pneumoniae, UniProt A6THB2 1-104); assay: EMSA; ND; up to 50 uM protein; EMSA: 20 mM Tris-HCl pH 8.0, 100 mM NaCl, 25 C, 30 min, 1.7 nM 32P-ssDNA; 8% native PAGE in TBE at 4 C; details: protein: recombinant; tags: none (tag-free); chain copies: 2; label: 5'-32P
KpSSB [3] = molecular target: T2, KpSSB (Klebsiella pneumoniae, UniProt A6TGW7 1-174); assay: EMSA; ND; up to 5 uM protein; EMSA: 20 mM Tris-HCl pH 8.0, 100 mM NaCl, 25 C, 30 min, 1.7 nM 32P-ssDNA; 8% native PAGE in TBE at 4 C; details: protein: recombinant; tags: none (tag-free); chain copies: 4; label: 5'-32P
KpPriB [4] = molecular target: T1, KpPriB; assay: EMSA; monomer conc.; 1 complex; EMSA: 20 mM Tris-HCl pH 8.0, 100 mM NaCl, 25 C, 30 min, 1.7 nM 32P-ssDNA; 8% native PAGE in TBE at 4 C; details: protein: recombinant; tags: none (tag-free); chain copies: 2; label: 5'-32P
KpSSB [5] = molecular target: T2, KpSSB; assay: EMSA; monomer conc.; 2 complexes; EMSA: 20 mM Tris-HCl pH 8.0, 100 mM NaCl, 25 C, 30 min, 1.7 nM 32P-ssDNA; 8% native PAGE in TBE at 4 C; details: protein: recombinant; tags: none (tag-free); chain copies: 4; label: 5'-32P
KpSSB [6] = molecular target: T2, KpSSB; assay: EMSA; monomer conc.; 1 complex; EMSA: 20 mM Tris-HCl pH 8.0, 100 mM NaCl, 25 C, 30 min, 1.7 nM 32P-ssDNA; 8% native PAGE in TBE at 4 C; details: protein: recombinant; tags: none (tag-free); chain copies: 4; label: 5'-32P
KpSSB [7] = molecular target: T2, KpSSB; assay: EMSA; ND; no stable complex up to 5 uM protein; EMSA: 20 mM Tris-HCl pH 8.0, 100 mM NaCl, 25 C, 30 min, 1.7 nM 32P-ssDNA; 8% native PAGE in TBE at 4 C; details: protein: recombinant; tags: none (tag-free); chain copies: 4; label: 5'-32P
[8] = molecular target: the molecule itself; assay: crystal structure; KpSSB without DNA, 14 mg/mL, hanging drop vapor diffusion, 20% PEG 3350, 0.2 M magnesium acetate tetrahydrate, pH 6.5; four monomers per asymmetric unit

Molecule: chimeric PriB-SSBc protein (KpPriB1-98 fused KpSSB112-174) (from UniProt A6THB2 1-98; A6TGW7 112-174)
- stoichiometry N [1]: 2

B1: dT15 (ssDNA)
DNA: TTTTTTTTTTTTTTT
- binding result (KpPriB [2]): no binding
- binding result (KpSSB [3]): no binding

B2: dT60 (ssDNA)
DNA: TTTTTTTTTTTTTTTTTTTTTTTTTTTTTTTTTTTTTTTTTTTTTTTTTTTTTTTTTTTT
- apparent K (half saturation) (KpPriB [4]): 4.8 ± 0.5 µM
- apparent K (half saturation) (KpSSB [5]): 50 ± 10 nM

B3: dT50 (ssDNA)
DNA: TTTTTTTTTTTTTTTTTTTTTTTTTTTTTTTTTTTTTTTTTTTTTTTTTT
- apparent K (half saturation) (KpPriB [4]): 5.6 ± 0.3 µM
- apparent K (half saturation) (KpSSB [6]): 170 ± 20 nM

B4: dT40 (ssDNA)
DNA: TTTTTTTTTTTTTTTTTTTTTTTTTTTTTTTTTTTTTTTT
- apparent K (half saturation) (KpPriB [4]): 9.1 ± 0.8 µM
- apparent K (half saturation) (KpSSB [6]): 230 ± 10 nM

B5: dT30 (ssDNA)
DNA: TTTTTTTTTTTTTTTTTTTTTTTTTTTTTT
- apparent K (half saturation) (KpPriB [4]): 9.2 ± 0.8 µM
- apparent K (half saturation) (KpSSB [6]): 550 ± 40 nM

B6: dT55 (ssDNA)
DNA: TTTTTTTTTTTTTTTTTTTTTTTTTTTTTTTTTTTTTTTTTTTTTTTTTTTTTTT
- apparent K (half saturation) (KpPriB [4]): 4.9 ± 0.5 µM
- apparent K (half saturation) (KpSSB [5]): 130 ± 10 nM

B7: dT20 (ssDNA)
DNA: TTTTTTTTTTTTTTTTTTTT
- binding result (KpSSB [7]): no binding

B8: Klebsiella pneumoniae SSB (natural protein, UniProt A6TGW7 1-174, looked up)
chain: MASRGVNKVILVGNLGQDPEVRYMPSGGAVANFTLATSESWRDKQTGEMKEQTEWHRVVLFGKLAEVAGEYLRKGSQVYIEGQLRTRKWTDQSGQDKYTTEVVVNVGGTMQMLGGRQGGGAPAGGGQQQGGWGQPQQPQGGNQFSGGAQSRPQQQAPAAPSNEPPMDFDDDIPF
notes: amino acids 120-174 not observed in the crystal structure; the gene spans 525 nt; also called KpSSB; source: E. coli, purified (ammonia sulfate precipitation, Q and Heparin columns)
- stoichiometry N [8]: 4

B9: dT25 (ssDNA)
DNA: TTTTTTTTTTTTTTTTTTTTTTTTT
- apparent K (half saturation) (KpPriB [4]): 14.1 ± 1 µM
- apparent K (half saturation) (KpSSB [6]): 580 ± 50 nM
